Assay results reported in patent publication US20160046671A1.
Bridges are numbered along the chain shown (N, C = ends). Where no end group is shown, it is not given here. [ ]: non-standard residue; d: D form. S5 = C=CCCC[C@](C)(N)C(=O)O

Molecular target: Wild-type human KRAS protein, N-terminal His6-tag fusion (human), P01116
Assay: fluorescence polarization
Conditions: modification not given

Binder: RRF[S5]GIY[S5]TNILKTEEGN (staple 4-8) [SAH-SOS A2]
- Kd: 21 nM
